Data from patent publication US20120329707A1 (INDIANA UNIVERSITY RESEARCH AND TECHNOLOGY, published 2012).
Numbered stars: 1 amine (or outer) side, 2 acyl side, 3 side chain; on linkers, the order of the positions; unused ones are H or OH. Square brackets hold non-standard residues; d marks the D form. Primed or numbered codes have the meaning given here. Side chains are listed from the residue outwards. Ends that are not written are not given here. * marks the point of attachment. 40K‑TE PEG″ = 40 kDa PEG bound to Cys via thioether made from an iodoacetyl-functionalised PEG; γGlu = O=C(O)[C@H](CCC(=O)[*:2])N[*:1]; Palmitoyl = CCCCCCCCCCCCCCCC(=O)*; Orn = NCCC[C@H](N)C(=O)O; Aib = CC(C)(N)C(=O)O

T1: GIP receptor
T1 sequence (P48546 whole entry, species assumed, looked up): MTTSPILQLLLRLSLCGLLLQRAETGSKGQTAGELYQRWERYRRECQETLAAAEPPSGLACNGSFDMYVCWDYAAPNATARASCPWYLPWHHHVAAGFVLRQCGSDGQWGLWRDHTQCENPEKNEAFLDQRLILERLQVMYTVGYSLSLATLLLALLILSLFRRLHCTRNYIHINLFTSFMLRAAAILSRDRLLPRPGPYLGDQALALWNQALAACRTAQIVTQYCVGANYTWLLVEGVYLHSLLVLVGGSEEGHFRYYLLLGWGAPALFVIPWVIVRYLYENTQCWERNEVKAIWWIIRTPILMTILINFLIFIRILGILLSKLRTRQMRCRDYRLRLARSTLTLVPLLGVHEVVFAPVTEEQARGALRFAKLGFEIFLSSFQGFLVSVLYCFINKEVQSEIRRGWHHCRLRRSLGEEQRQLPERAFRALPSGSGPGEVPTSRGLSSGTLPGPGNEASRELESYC


What was measured:
Test in all cases: cell-based or functional assay
[1] = biological target: glucagon receptor
[2] = biological target: GLP-1 receptor
[3] = biological target: T1, GIP receptor

Row | Binder | EC50 (nM) at glucagon receptor [1] [nM] | EC50 (nM) at GLP-1 receptor [2] [nM] | EC50 (nM) at GIP receptor [3] [nM]
1 | H[Aib]QGTFTSDK([γGlu-Palmitoyl])SKYLD[Aib]RAAQDFVQWLKDGRG-NH2 (N-terminus assumed; SMILES CCCCCCCCCCCCCCCC(=O)N[C@@H](CCC(=O)NCCCC[C@H](NC(=O)[C@H](CC(=O)O)NC(=O)[C@H](CO)NC(=O)[C@@H](NC(=O)[C@H](Cc1ccccc1)NC(=O)[C@@H](NC(=O)CNC(=O)[C@H](CCC(N)=O)NC(=O)C(C)(C)NC(=O)[C@@H](N)Cc1c[nH]cn1)[C@@H](C)O)[C@@H](C)O)C(=O)N[C@@H](CO)C(=O)N[C@@H](CCCCN)C(=O)N[C@@H](Cc1ccc(O)cc1)C(=O)N[C@@H](CC(C)C)C(=O)N[C@@H](CC(=O)O)C(=O)NC(C)(C)C(=O)N[C@@H](CCCNC(=N)N)C(=O)N[C@@H](C)C(=O)N[C@@H](C)C(=O)N[C@@H](CCC(N)=O)C(=O)N[C@@H](CC(=O)O)C(=O)N[C@@H](Cc1ccccc1)C(=O)N[C@H](C(=O)N[C@@H](CCC(N)=O)C(=O)N[C@@H](Cc1c[nH]c2ccccc12)C(=O)N[C@@H](CC(C)C)C(=O)N[C@@H](CCCCN)C(=O)N[C@@H](CC(=O)O)C(=O)NCC(=O)N[C@@H](CCCNC(=N)N)C(=O)NCC(N)=O)C(C)C)C(=O)O) [peptide of SEQ ID NO: 36] | 0.028 | 0.003 | 0.47
2 | H[dS]QGTFTSDK([γGlu-Palmitoyl])SKYLDERAAQDFVQWLLDGRK-NH2 [peptide of SEQ ID NO: 28] | 0.015 | 0.003 | 2.84
3 | H[Aib]QGTFTSDK([γGlu-γGlu-Palmitoyl])SKYLD[Aib]RAAQDFVQWLL[Aib]GRG-NH2 (N-terminus assumed; SMILES CCCCCCCCCCCCCCCC(=O)N[C@@H](CCC(=O)N[C@@H](CCC(=O)NCCCC[C@H](NC(=O)[C@H](CC(=O)O)NC(=O)[C@H](CO)NC(=O)[C@@H](NC(=O)[C@H](Cc1ccccc1)NC(=O)[C@@H](NC(=O)CNC(=O)[C@H](CCC(N)=O)NC(=O)C(C)(C)NC(=O)[C@@H](N)Cc1c[nH]cn1)[C@@H](C)O)[C@@H](C)O)C(=O)N[C@@H](CO)C(=O)N[C@@H](CCCCN)C(=O)N[C@@H](Cc1ccc(O)cc1)C(=O)N[C@@H](CC(C)C)C(=O)N[C@@H](CC(=O)O)C(=O)NC(C)(C)C(=O)N[C@@H](CCCNC(=N)N)C(=O)N[C@@H](C)C(=O)N[C@@H](C)C(=O)N[C@@H](CCC(N)=O)C(=O)N[C@@H](CC(=O)O)C(=O)N[C@@H](Cc1ccccc1)C(=O)N[C@H](C(=O)N[C@@H](CCC(N)=O)C(=O)N[C@@H](Cc1c[nH]c2ccccc12)C(=O)N[C@@H](CC(C)C)C(=O)N[C@@H](CC(C)C)C(=O)NC(C)(C)C(=O)NCC(=O)N[C@@H](CCCNC(=N)N)C(=O)NCC(N)=O)C(C)C)C(=O)O)C(=O)O) [peptide of SEQ ID NO: 29] | 0.014 | 0.007 | 1.65
4 | H[dS]QGTFTSDK([γGlu-Palmitoyl])SKYLDERAAQDFVQWLLKGRG-NH2 [peptide of SEQ ID NO: 27] | 0.022 | 0.005 | 2.12
5 | H[Aib]QGTFTSDYSKYLDERRA[Aib]EFVC(40K‑TE PEG″)WLLDGGPSSGAPPPS-NH2 [peptide of SEQ ID NO: 35] | 1.18 | 0.085 | 16.1
6 | H[Aib]QGTFTSDK([γGlu-γGlu-Palmitoyl])SKYLD[Aib]RAAQDFVQWLK[Aib]GRG-NH2 (N-terminus assumed; SMILES CCCCCCCCCCCCCCCC(=O)N[C@@H](CCC(=O)N[C@@H](CCC(=O)NCCCC[C@H](NC(=O)[C@H](CC(=O)O)NC(=O)[C@H](CO)NC(=O)[C@@H](NC(=O)[C@H](Cc1ccccc1)NC(=O)[C@@H](NC(=O)CNC(=O)[C@H](CCC(N)=O)NC(=O)C(C)(C)NC(=O)[C@@H](N)Cc1c[nH]cn1)[C@@H](C)O)[C@@H](C)O)C(=O)N[C@@H](CO)C(=O)N[C@@H](CCCCN)C(=O)N[C@@H](Cc1ccc(O)cc1)C(=O)N[C@@H](CC(C)C)C(=O)N[C@@H](CC(=O)O)C(=O)NC(C)(C)C(=O)N[C@@H](CCCNC(=N)N)C(=O)N[C@@H](C)C(=O)N[C@@H](C)C(=O)N[C@@H](CCC(N)=O)C(=O)N[C@@H](CC(=O)O)C(=O)N[C@@H](Cc1ccccc1)C(=O)N[C@H](C(=O)N[C@@H](CCC(N)=O)C(=O)N[C@@H](Cc1c[nH]c2ccccc12)C(=O)N[C@@H](CC(C)C)C(=O)N[C@@H](CCCCN)C(=O)NC(C)(C)C(=O)NCC(=O)N[C@@H](CCCNC(=N)N)C(=O)NCC(N)=O)C(C)C)C(=O)O)C(=O)O) [peptide of SEQ ID NO: 26] | 0.106 | 0.004 | 3.29
7 | H[Aib]QGTFTSDK([γGlu-γGlu-Palmitoyl])SKYLD[Aib]RAAQDFVQWLMKGRG-OH (N-terminus assumed; SMILES CCCCCCCCCCCCCCCC(=O)N[C@@H](CCC(=O)N[C@@H](CCC(=O)NCCCC[C@H](NC(=O)[C@H](CC(=O)O)NC(=O)[C@H](CO)NC(=O)[C@@H](NC(=O)[C@H](Cc1ccccc1)NC(=O)[C@@H](NC(=O)CNC(=O)[C@H](CCC(N)=O)NC(=O)C(C)(C)NC(=O)[C@@H](N)Cc1c[nH]cn1)[C@@H](C)O)[C@@H](C)O)C(=O)N[C@@H](CO)C(=O)N[C@@H](CCCCN)C(=O)N[C@@H](Cc1ccc(O)cc1)C(=O)N[C@@H](CC(C)C)C(=O)N[C@@H](CC(=O)O)C(=O)NC(C)(C)C(=O)N[C@@H](CCCNC(=N)N)C(=O)N[C@@H](C)C(=O)N[C@@H](C)C(=O)N[C@@H](CCC(N)=O)C(=O)N[C@@H](CC(=O)O)C(=O)N[C@@H](Cc1ccccc1)C(=O)N[C@H](C(=O)N[C@@H](CCC(N)=O)C(=O)N[C@@H](Cc1c[nH]c2ccccc12)C(=O)N[C@@H](CC(C)C)C(=O)N[C@@H](CCSC)C(=O)N[C@@H](CCCCN)C(=O)NCC(=O)N[C@@H](CCCNC(=N)N)C(=O)NCC(=O)O)C(C)C)C(=O)O)C(=O)O) [peptide of SEQ ID NO: 31] | 0.016 | 0.007 | 2.34
8 | H[Aib]QGTFTSDK([γGlu-γGlu-Palmitoyl])SKYLD[Aib]RAAQDFVQWLM[Orn]T[Orn]E-OH (N-terminus assumed; SMILES CCCCCCCCCCCCCCCC(=O)N[C@@H](CCC(=O)N[C@@H](CCC(=O)NCCCC[C@H](NC(=O)[C@H](CC(=O)O)NC(=O)[C@H](CO)NC(=O)[C@@H](NC(=O)[C@H](Cc1ccccc1)NC(=O)[C@@H](NC(=O)CNC(=O)[C@H](CCC(N)=O)NC(=O)C(C)(C)NC(=O)[C@@H](N)Cc1c[nH]cn1)[C@@H](C)O)[C@@H](C)O)C(=O)N[C@@H](CO)C(=O)N[C@@H](CCCCN)C(=O)N[C@@H](Cc1ccc(O)cc1)C(=O)N[C@@H](CC(C)C)C(=O)N[C@@H](CC(=O)O)C(=O)NC(C)(C)C(=O)N[C@@H](CCCNC(=N)N)C(=O)N[C@@H](C)C(=O)N[C@@H](C)C(=O)N[C@@H](CCC(N)=O)C(=O)N[C@@H](CC(=O)O)C(=O)N[C@@H](Cc1ccccc1)C(=O)N[C@H](C(=O)N[C@@H](CCC(N)=O)C(=O)N[C@@H](Cc1c[nH]c2ccccc12)C(=O)N[C@@H](CC(C)C)C(=O)N[C@@H](CCSC)C(=O)N[C@@H](CCCN)C(=O)N[C@H](C(=O)N[C@@H](CCCN)C(=O)N[C@@H](CCC(=O)O)C(=O)O)[C@@H](C)O)C(C)C)C(=O)O)C(=O)O) [peptide of SEQ ID NO: 33] | 0.023 | 0.019 | 3.96
9 | H[Aib]QGTFTSDYSKYLDERRA[Aib]EFVC(40K‑TE PEG″)WLLDT-NH2 [peptide of SEQ ID NO: 14] | 0.365 | 0.076 | 33.7
10 | H[Aib]QGTFTSDK([γGlu-Palmitoyl])SKYLD[Aib]RAAQDFVQWLLDGRG-NH2 (N-terminus assumed; SMILES CCCCCCCCCCCCCCCC(=O)N[C@@H](CCC(=O)NCCCC[C@H](NC(=O)[C@H](CC(=O)O)NC(=O)[C@H](CO)NC(=O)[C@@H](NC(=O)[C@H](Cc1ccccc1)NC(=O)[C@@H](NC(=O)CNC(=O)[C@H](CCC(N)=O)NC(=O)C(C)(C)NC(=O)[C@@H](N)Cc1c[nH]cn1)[C@@H](C)O)[C@@H](C)O)C(=O)N[C@@H](CO)C(=O)N[C@@H](CCCCN)C(=O)N[C@@H](Cc1ccc(O)cc1)C(=O)N[C@@H](CC(C)C)C(=O)N[C@@H](CC(=O)O)C(=O)NC(C)(C)C(=O)N[C@@H](CCCNC(=N)N)C(=O)N[C@@H](C)C(=O)N[C@@H](C)C(=O)N[C@@H](CCC(N)=O)C(=O)N[C@@H](CC(=O)O)C(=O)N[C@@H](Cc1ccccc1)C(=O)N[C@H](C(=O)N[C@@H](CCC(N)=O)C(=O)N[C@@H](Cc1c[nH]c2ccccc12)C(=O)N[C@@H](CC(C)C)C(=O)N[C@@H](CC(C)C)C(=O)N[C@@H](CC(=O)O)C(=O)NCC(=O)N[C@@H](CCCNC(=N)N)C(=O)NCC(N)=O)C(C)C)C(=O)O) [peptide of SEQ ID NO: 30] | 0.933 | 0.0082 | 9.06
11 | H[Aib]QGTFTSDK([γGlu-γGlu-Palmitoyl])SKYLD[Aib]RAAQDFVQWLMDTK[dA]-OH [peptide of SEQ ID NO: 32] | 0.007 | 0.008 | 2.08
